As a reminder, the Kd is the free concentration of one partner at which half of the binding sites on the other are occupied at equilibrium, for simple one-to-one binding.

Here are results for one molecule from article PMC2615553 (Immunity, 2008).

The assay addresses T1, plexinD1-Fc (ectodomain of mouse plexinD1 as C-terminal Fc-fusion construct) (mouse, UniProt Q3UH93 49-1271).
T1 sequence (looked up): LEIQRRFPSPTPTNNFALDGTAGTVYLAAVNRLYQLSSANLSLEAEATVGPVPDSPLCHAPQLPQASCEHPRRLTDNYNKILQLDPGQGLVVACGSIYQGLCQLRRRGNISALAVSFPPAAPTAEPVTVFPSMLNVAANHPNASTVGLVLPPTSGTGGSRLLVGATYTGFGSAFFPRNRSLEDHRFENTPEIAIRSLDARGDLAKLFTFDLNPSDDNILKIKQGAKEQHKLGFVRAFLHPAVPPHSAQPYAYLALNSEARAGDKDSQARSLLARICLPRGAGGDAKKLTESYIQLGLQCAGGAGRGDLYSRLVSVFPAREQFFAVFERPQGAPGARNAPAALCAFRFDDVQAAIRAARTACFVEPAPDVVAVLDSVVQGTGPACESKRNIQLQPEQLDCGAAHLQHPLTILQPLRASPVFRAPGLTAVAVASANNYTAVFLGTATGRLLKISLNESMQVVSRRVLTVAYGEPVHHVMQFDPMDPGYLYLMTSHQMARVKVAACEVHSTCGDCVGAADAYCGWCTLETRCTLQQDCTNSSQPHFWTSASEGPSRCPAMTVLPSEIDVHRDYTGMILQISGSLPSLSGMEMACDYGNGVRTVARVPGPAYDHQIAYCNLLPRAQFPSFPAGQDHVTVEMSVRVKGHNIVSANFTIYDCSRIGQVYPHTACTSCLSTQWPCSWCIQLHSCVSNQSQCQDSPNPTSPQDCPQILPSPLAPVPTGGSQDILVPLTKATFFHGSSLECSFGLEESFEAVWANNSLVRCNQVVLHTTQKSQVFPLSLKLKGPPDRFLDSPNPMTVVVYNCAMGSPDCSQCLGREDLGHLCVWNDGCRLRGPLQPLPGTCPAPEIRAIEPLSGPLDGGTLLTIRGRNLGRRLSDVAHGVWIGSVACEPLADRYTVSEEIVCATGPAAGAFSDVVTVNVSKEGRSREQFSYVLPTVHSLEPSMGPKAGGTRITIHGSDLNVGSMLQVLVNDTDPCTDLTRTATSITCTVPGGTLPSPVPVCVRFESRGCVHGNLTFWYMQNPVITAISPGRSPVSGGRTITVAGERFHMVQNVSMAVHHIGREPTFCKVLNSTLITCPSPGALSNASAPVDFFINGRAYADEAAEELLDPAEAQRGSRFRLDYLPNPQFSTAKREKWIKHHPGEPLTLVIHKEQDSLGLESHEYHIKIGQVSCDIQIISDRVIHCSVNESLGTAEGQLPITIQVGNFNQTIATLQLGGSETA
Put plainly: SPR.

B1: sema3E-Fc (semaphorin 3E as C-terminal Fc-fusion construct) (Fc fusion, UniProt P70275 26-775, looked up)
chain: ANPSYPRLRLSHKELLELNRTSIFQSPLGFLDLHTMLLDEYQERLFVGGRDLVYSLNLERVSDGYREIYWPSTAVKVEECIMKGKDANECANYIRVLHHYNRTHLLTCATGAFDPHCAFIRVGHHSEEPLFHLESHRSERGRGRCPFDPNSSFVSTLVGNELFAGLYSDYWGRDSAIFRSMGKLGHIRTEHDDERLLKEPKFVGSYMIPDNEDRDDNKMYFFFTEKALEAENNAHTIYTRVGRLCVNDMGGQRILVNKWSTFLKARLVCSVPGMNGIDTYFDELEDVFLLPTRDPKNPVIFGLFNTTSNIFRGHAVCVYHMSSIREAFNGPYAHKEGPEYHWSLYEGKVPYPRPGSCASKVNGGKYGTTKDYPDDAIRFARMHPLMYQPIKPVHKKPILVKTDGKYNLRQLAVDRVEAEDGQYDVLFIGTDTGIVLKVITIYNQETEWMEEVILEELQIFKDPAPIISMEISSKRQQLYIGSASAVAQVRFHHCDMYGSACADCCLARDPYCAWDGISCSRYYPTGAHAKRRFRRQDVRHGNAAQQCFGQQFVGDALDRTEERLAYGIESNSTLLECTPRSLQAKVIWFVQKGRDVRKEEVKTDDRVVKMDLGLLFLRVRKSDAGTYFCQTVEHNFVHTVRKITLEVVEEHKVEGMFHKDHEEERHHKMPCPPLSGMSQGTKPWYKEFLQLIGYSNFQRVEEYCEKVWCTDKKRKKLKMSPSKWKYANPQEKRLRSKAEHFRLPRHTLLS
Molecule B1 gave a Kd of 43.4 nM.
